Test results: the supplement of paper PMC10567573

B1: ZNF263 (parent)
chain: QRTHTGEKPYKCPECGEIFAHSSN
B2: FAM189A2 (parent)
chain: GSEAAVIPLDLGCTQVTQDGDIPN

Variants of: B1
Assay: protein stability index of a GFP-peptide fusion (GPS, HEK-293T) (PSI 1-6); higher = more stable
Settings: c terminus: a fixed tail appended
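Note: lentivirally expressed fusions sorted by FACS into six bins by GFP to DsRed ratio, PSI derived from sequencing read proportions per bin multiplied by bin number.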

Protein stability index of substitutions, site by site:
H21: R 3.16, Q 3.43, W 1.95, K 3.78, E 3.21, F 2.74, N 2.86, D 2.5, L 2.3, T 3.15

Variants of: B2
Assay: as above
Settings: c terminus: a fixed tail appended

Protein stability index of substitutions, site by site:
P8: W 2, F 2.34, C 4.03, R 4.53, G 5.18, A 4.68, K 5, T 4.42, D 4.97, Q 4.22, M 3.41, E 4.85, I 1.87, S 4.46, L 2.65, Y 2.83, H 4.74, N 5.16, V 2.54
E3: P 5.23, N 5.1, F 4.14, L 4.54, S 5.1, M 4.45, D 5.38, K 5.35, Y 4.18, C 4.83, T 5.11, A 5.2, G 5.11, V 4.49, H 4.49, I 3.58, W 2.96, Q 5.3, R 5.08
L9: D 5.48, A 4.91, F 4.92, E 5.41, C 5.5
G1: W 4.31, P 5.38, T 5.58, Q 5.44, K 5.25, M 5.33, E 5.05, D 5.34, R 5.24, A 5.53, F 4.84, N 5.46, Y 4.26, I 4.68, S 5.22, L 5.43, H 5.29, V 5.2, C 4.75
I7: H 5.23, Q 5.24, E 5.78, W 4.79, G 5.6, L 4.86, Y 5.32, R 4.98, V 5.23, M 5.24, K 5.23, C 5.04, F 4.96, D 5.93, S 5.58, N 5.66, A 5.57, P 5.47, T 5.67
A5: P 5.68, L 4.57, Q 5.1, I 3.79, H 5.2, T 5.43, N 5.17, F 4.64, C 4.9, S 5.51, W 3.95, M 5.01, V 5.08, E 5.13, G 5.36, D 5.74, K 5.19, Y 4.15, R 5.2
V6: L 5.16, S 5.58, M 5.25, D 5.63, I 5.25, G 5.33, W 4.92, R 5.57, H 5.51, F 4.91, Q 5.33, P 5.76, T 5.58, C 5.43, N 5.44, E 5.65, A 5.5, K 5.71, Y 5.35
A4: W 4.53, H 4.7, T 5.27, S 5.24, D 5.61, V 4.97, F 4.44, P 5.53, G 5.29, N 5.58, E 5.57, K 5.49, R 5.4, M 4.81, Y 4.79, Q 5.36, L 5.34, I 4.37, C 4.74
S2: I 5.23, W 3.93, M 4.89, C 5.49, L 4.77, A 5.71, Q 5.36, G 5.03, P 5.21, N 5.52, T 5.01, F 4.96, E 5.55, K 4.64, Y 4.8, D 5.51, R 5.61, H 5.25, V 4.85
